Source: the supplement of paper PMC9116672
± gives the standard deviation of the averaged measurements or the uncertainty stated by the source.

How the values were obtained:
[1] = duplex melting temperature (HRM, EvaGreen); higher = more stable duplex
Method: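 Listed DNA strand annealed 1:1 with its complementary strand (95 °C 5 min, 0.1 °C/s to 20 °C). Melted in 1x NNE buffer (500 mM NaCl, 10 mM Na2HPO4, 1 mM EDTA, pH 7.0) with 1x EvaGreen on a LightCycler96 (37 to 97 °C, 0.1 °C/s). Tm is the peak of -dF/dT at the stated total duplex concentration; 4 replicates are averaged. PS oligos are non-stereospecific (Rp/Sp mixtures).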

[2] = duplex formation enthalpy ΔH (Van't Hoff fit of HRM Tm); higher = less exothermic duplex formation; conditions: temperature for dG: 50 °C, NaCl: 500 mM (unadjusted)
Method: (§1)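 Duplex of the listed DNA strand with its complement, in 1x NNE buffer (500 mM NaCl, pH 7.0) with 1x EvaGreen. ΔH and ΔS come from a Van't Hoff linear fit of 1/Tm against ln(CT/4) over 1-20 uM, using HRM Tm values.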

[3] = duplex formation entropy ΔS (Van't Hoff fit of HRM Tm); higher = smaller entropy loss on duplex formation; conditions: temperature for dG: 50 °C, NaCl: 500 mM (unadjusted)
Method: as §1

[4] = duplex formation free energy ΔG50 (Van't Hoff fit of HRM Tm); higher = less stable duplex; conditions: temperature for dG: 50 °C, NaCl: 500 mM (unadjusted)
Method: as §1

[5] = duplex concentration 1 µM, backbone: PO-PO (both strands phosphodiester DNA)
[6] = duplex concentration 1 µM, backbone: PS-PO (listed strand fully phosphorothioate, complement phosphodiester)
[7] = duplex concentration 1 µM, backbone: PS-PS (both strands fully phosphorothioate)
[8] = duplex concentration 2.5 µM, backbone: PO-PO (both strands phosphodiester DNA)
[9] = duplex concentration 2.5 µM, backbone: PS-PO (listed strand fully phosphorothioate, complement phosphodiester)
[10] = duplex concentration 2.5 µM, backbone: PS-PS (both strands fully phosphorothioate)
[11] = duplex concentration 5 µM, backbone: PO-PO (both strands phosphodiester DNA)
[12] = duplex concentration 5 µM, backbone: PS-PO (listed strand fully phosphorothioate, complement phosphodiester)
[13] = duplex concentration 5 µM, backbone: PS-PS (both strands fully phosphorothioate)
[14] = duplex concentration 7.5 µM, backbone: PO-PO (both strands phosphodiester DNA)
[15] = duplex concentration 7.5 µM, backbone: PS-PO (listed strand fully phosphorothioate, complement phosphodiester)
[16] = duplex concentration 7.5 µM, backbone: PS-PS (both strands fully phosphorothioate)
[17] = duplex concentration 10 µM, backbone: PO-PO (both strands phosphodiester DNA)
[18] = duplex concentration 10 µM, backbone: PS-PO (listed strand fully phosphorothioate, complement phosphodiester)
[19] = duplex concentration 10 µM, backbone: PS-PS (both strands fully phosphorothioate)
[20] = duplex concentration 15 µM, backbone: PO-PO (both strands phosphodiester DNA)
[21] = duplex concentration 15 µM, backbone: PS-PO (listed strand fully phosphorothioate, complement phosphodiester)
[22] = duplex concentration 15 µM, backbone: PS-PS (both strands fully phosphorothioate)
[23] = duplex concentration 20 µM, backbone: PO-PO (both strands phosphodiester DNA)
[24] = duplex concentration 20 µM, backbone: PS-PO (listed strand fully phosphorothioate, complement phosphodiester)
[25] = duplex concentration 20 µM, backbone: PS-PS (both strands fully phosphorothioate)
[26] = backbone: PO-PO (both strands phosphodiester DNA)
[27] = backbone: PS-PO (listed strand fully phosphorothioate, complement phosphodiester)
[28] = backbone: PS-PS (both strands fully phosphorothioate)

Sequence | duplex melting temperature [1, 5] | duplex melting temperature [1, 6] | duplex melting temperature [1, 7] | duplex melting temperature [1, 8] | duplex melting temperature [1, 9] | duplex melting temperature [1, 10] | duplex melting temperature [1, 11] | duplex melting temperature [1, 12] | duplex melting temperature [1, 13] | duplex melting temperature [1, 14] | duplex melting temperature [1, 15] | duplex melting temperature [1, 16] | duplex melting temperature [1, 17] | duplex melting temperature [1, 18] | duplex melting temperature [1, 19] | duplex melting temperature [1, 20] | duplex melting temperature [1, 21] | duplex melting temperature [1, 22] | duplex melting temperature [1, 23] | duplex melting temperature [1, 24] | duplex melting temperature [1, 25] | duplex formation enthalpy ΔH [2, 26] | duplex formation enthalpy ΔH [2, 27] | duplex formation enthalpy ΔH [2, 28] | duplex formation entropy ΔS [3, 26] | duplex formation entropy ΔS [3, 27] | duplex formation entropy ΔS [3, 28] | duplex formation free energy ΔG50 [4, 26] | duplex formation free energy ΔG50 [4, 27] | duplex formation free energy ΔG50 [4, 28]
GATTGTATCATCGACATCACACTACC | 73.69 ± 0.2 °C | 65.7 ± 0.68 °C | 56.3 ± 0.93 °C | 74.91 ± 0.39 °C | 67.05 ± 0.59 °C | 58.43 ± 0.52 °C | 76.04 ± 0.6 °C | 68.37 ± 0.47 °C | 59.81 ± 0.47 °C | 76.92 ± 0.26 °C | 68.77 ± 0.45 °C | 60.92 ± 0.21 °C | 77.78 ± 0.12 °C | 69.57 ± 0.28 °C | 61.49 ± 0.14 °C | 78.7 ± 0.1 °C | 70.36 ± 0.14 °C | 62.51 ± 0.2 °C | 79.317 ± 0.061 °C | 70.75 ± 0.1 °C | 63.05 ± 0.085 °C | -127 ± 9.1 kcal/mol | -137 ± 4.9 kcal/mol | -99.2 ± 2.2 kcal/mol | -336 ± 26 cal/mol/K | -375 ± 14 cal/mol/K | -271 ± 6.5 cal/mol/K | -18.3 ± 0.7 kcal/mol | -16.1 ± 0.27 kcal/mol | -11.7 ± 0.069 kcal/mol
ACATGACTCATCTTAGCCGGCGAG | 77.5 ± 1.1 °C | 71.03 ± 0.65 °C | 63.8 ± 0.81 °C | 79.47 ± 0.48 °C | 72.33 ± 0.54 °C | 65.78 ± 0.62 °C | 80.58 ± 0.42 °C | 73.6 ± 0.59 °C | 67.03 ± 0.46 °C | 81.54 ± 0.25 °C | 74.24 ± 0.52 °C | 68.06 ± 0.18 °C | 82.18 ± 0.17 °C | 75.03 ± 0.16 °C | 68.59 ± 0.11 °C | 82.95 ± 0.13 °C | 75.79 ± 0.14 °C | 69.29 ± 0.1 °C | 83.69 ± 0.2 °C | 76.42 ± 0.052 °C | 69.97 ± 0.13 °C | -128 ± 5.6 kcal/mol | -133 ± 5.9 kcal/mol | -115 ± 2.6 kcal/mol | -336 ± 16 cal/mol/K | -356 ± 17 cal/mol/K | -311 ± 7.6 cal/mol/K | -19.9 ± 0.5 kcal/mol | -17.8 ± 0.41 kcal/mol | -14.53 ± 0.14 kcal/mol
